Assay: soluble fraction after stress (log2 fold change); higher = more stays soluble; pooled small domains, quantitative proteomics
Settings: stress: 50 degC
Method in brief: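 Pooled custom libraries of small protein domains were measured in a high-throughput format, with quantitative proteomics as the read-out. Each library was stressed at 50°C. Aggregation propensity is given as the base-two logarithm of the fold change in how much of each protein stays soluble after the stress. Higher values mean a larger share of the protein remains in solution.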

| Sequence | soluble fraction (log2) |
| --- | --- |
| HMKWGDTPTVEVPNLIGMKKKDLQTQLVDLKLDISGDGEKVIKQSPEAGAKVKEGSKIRIYFG | -0.0661 |
| HMYLPGERMRIKITALGSNPKQGVGYLPDGMMVVVDEAATLVGRFVEIEFVKFLQTNSGRMMFAKVAT | -0.224 |
| HMSETAEFIIQVNGKVRAKLQLPTDISKEEIQKLALADENVQKYLNGEPRKIIFPPNTRLVSIV | -0.0471 |
| HMLTGNTAKLFAHLVEVMNPKEFVKINRQTVIVEAGIPRGSVGAAIAKLLETGHLIANASGAYKLT | 0.322 |
| HMEDPRVTEIKNLQQDLAKKFKPTQGPASASDAVERVTAITTVMTKVAALPEDLRSEAMQPGKKM | -0.322 |
| HMHESLAEVAARKLRALIVTGELAPGERVTEAGLTDLLEISRTPAREAIRILSSEGLLVVFPNRGAEVV | -0.822 |
| HMQPDPAFVAWVDANPWYKENRTLRALVHDYAEEVKRQEPALIGTAFLDRVKQLVQSEHPELFD | -0.0926 |
| HMGDFLLQVDFPPALLEMLPEGKRQAAIGVLSHDPRPAYQRTPGRVYGLNFAGHNIRFAVSENLLTVLEV | -2.08 |
| HMKTTKESLLEYIQREVFTDSIHKEGLSTNEIADAFQIQRSNVSSLLNTLVKEGKLEKTTGRPVLYRIPEK | 0.0655 |
| HMKQNRNLPVQIINNGKIIESVMTEFNLDIDWVYSEAKRLGYKNIKDIFYAGINRDGQFFIVPLF | -0.448 |
| HMTPNRDDEHLQSLRDYYASNRRIPSLQRIAALLGFSSRSAAVKLMGRLADEGFVERTVDDDAWIPGSRFF | -0.808 |
| HMTSSQLYLIEEDMEGERLDAFLAEVIADLSRTAIKDLISNGRVLVDGQARKPSYRVKEGEQVLIHVPEAR | -0.0195 |
| HMESAEQTGEELAARVNVLQTVSQALARELGREAAVEELADKMKMTVDEVKDIMKMAMDAMSM | 0.168 |
| HMPEVYPFEVAEDDAGKRLDVFLSEEIEEFTRSFIQKLIAGGLASVNRAPARASYRVKPRDLVELQVPE | -0.448 |
| HMHKPLRILVYEELRMLIMTGQIKPGTRMMEIDLAESMGVSRTPVREAIRQLEKDNLVTIEPRRGAYVSD | -2.45 |
| HMTEKMILKWKEALERMNDDFTTKDWLNVVIHEMGKSERTAYGWLSDMKRSGIIKDLGYGSWLKVLE | -0.738 |
| HMHDAKAEIIRLSALLTEYQRSYYIDGHSQVSDLEYDRLFDRLVALETSHPELREADSPTQRV | -0.855 |
| HMPVFYVTGNRVNFRAGPSTGDRVIGSLSQGAAVEVLGPTDDAWINIRDSDGRVGYMSAQFLSQ | -0.069 |
| HMKPVPPLNGTSLRDLALGYAGRYATTAARLKHYLQRKLRERGWGGEDEPDLDGLVARLVELGYVNDEVF | -0.102 |
| HMDRDQNVEEGQRSLKSEMGRFGLLIANMDDLAERVNYGNAEDMYAAIGAGDLRLMQVVHAAEEMLG | 0.127 |
| HMDAPIIRLLNSLVQRAVTTTASDIHIEPFEGETKVRMRIDGVIIDYVTLQRALHQPLIARIKIMSNLD | -0.202 |
| HMDVQPHIYLRKLDQFWPADLHSLILYTLDGRRLWSADSGNIPALPHRASSLVILEATWDNGQRTRRKQFL | -1.63 |
| HMKASEMKKGQTIKIDGVLYVIVDFQHVKLSKGGAVYQTKLRNLAAGGIRDIRIRAEEVLEDA | -0.311 |
| HMRSMEKRLTAKVKRVQEGVQAKSQAGEQPFEVVKLMQRFPKLMQFGKHAEAETVLDKALELLGEE | 0.172 |
| HMLEIDPPVDEISVSRKAFYEAAGYKVNPYTHIPPRYRKEFEEHSFVVMSWPRELPEETYRKFDRYLRDV | 0.103 |
| HMGAQRDFELQLIDVIRQNPGLTYKAYGEKLSVSQATVKRLVAKLKETGSIRREGSQRKGTWIITDD | -0.867 |

| Sequence | soluble fraction (log2) |
| --- | --- |
| HMEQKELAPLVPQEDGSVKLTNLAGYSMREVAAALEGGNLSLIPIGSGTSWKQDPAPGTVLQPGNTVTVYF | 0.00354 |
| HMIELTTDYKKRVVEALVSARENYSGSDSDFARKWSIDKTVYSRLKKGYQEGLLSVGKYIELGMELNVSSR | -1.34 |
| HMNDTVGMNIRRLRKERGMTQGDLADKAGIQRETISKYESNKLTPPSYNLESIEKALKVPAGTLAQ | 0.0652 |
| HMGIRAFDPEAFDERLKEFFSMIAPYKKLDTRSLQPHFPHHAKEVAERIRQLAEAGKIKVDGFYISEL | -0.108 |
| HMSNWYGTVVKIQPRPNAQAADTAVVKLLDGSEHRFPVWADHLTTIEVGSRLKKLSGGWDPVLMDPEETF | -0.454 |
| HMSISDEDFAKLLDFVKEKWDAGELDNAEDIKAAISEGEKEFGVSLDESTRTTLASALQQLN | -0.134 |
| HMQISSSEVLEKVVDEILSANPKSIEDYKNGKLQAAGFLMGQVMKATKGQANPAVAKELIEAKLKD | 0.419 |
| HMHVSIAENIRRIRTQHDMTQEEFGKVAAVSAMAVSQWENGRAVPRMGAVQRIADYFNISKGEVID | -0.543 |
| HMSTANISIEQAKEIALNHANLTSNQVIFSRTELDYDNGIQKYEVEFYYNNREYSYEINANTGDILGYEQ | -0.148 |
| HMSDAVQLGLRLRAARERRGLSQQAVADALGLPRTAVTNMESGNRAVSTLELTKLAALYGQSTAFFLSP | -0.1 |
| HMRTVEQFQIRKIYAISNALGISDSRADEDELHVLVSGLTGKDSIKELTYREASVVIERLEELQ | -2.54 |
| HMRNLYEILGVSKDAPQGEIKSAYRKLAKTYHPDLNPNNEKAAELFKEINQAYEVLSDETKRRHYDQFGEA | 0.312 |
| HMWNKGETKIPTQAQNELIKRRQAGATWTSLSEWLKATYGIDIHRTNIQRWYDKEVYLDQEN | -0.316 |
| HMKLEEITIIVPSLRLDNFVSDLARTSRSKAVQIIDSERVFINGQNETKASKQVKLGDVITSA | -0.277 |
| HMNFTMERLYTKELTSEDIDEIKKELNSMGYTEGVEFNIIKGDKTSFIMAERQLKAKMLSHLSDLGLPRGA | -0.152 |
| HMLETILQIGKDGVGENLVKQVNDALEARELIKGRVLDNNLELDARTAAQILAKATRSEVVQVIGTKFV | -0.0922 |
| HMSEQLHALIDRLDDIPDDELKKNWPGTLRDLVDVISAELHRQGIEPAQAGMLARKVAAAQAGYMG | -0.344 |
| HMIPYSDLLKLLSNDAMPKFRNKDGWAKIHALETYLASRWSYQEYGFASFTVLLETVHNAEIRNDSVRLM | -0.343 |
| HMGLTRRAQLEVADANLKRLYPGMHQSWVTAIAEYLHSSYWRYINSLEPEYAASIQRVYEQHIDAM | 0.0529 |
| HMGPPAVGSKLQDARKAQQLSLDELSKRAGVSKSMLSEVERNQANPTVGVLWRLATALGISLTDLLG | -0.374 |
| HMNRREFQFSEGSSNKFWSIELRDQSFIVHYGKIGTNGQAQEKTFATADAAKKEHDKLIAEKTKKGYVEVQ | -0.392 |
| HMVTDSGEIEKLVDEVIDNNPDQVQQFREGKQQVLSYLVGQAMKLSRGKANPNQVNQFLRDKL | 0.291 |
| HMQDLEIKINLGMTYYEVREAIGSPDIIDKINQYGRDFQMWTYYIDDKTKRYYFEDHLLTKI | -3.33 |
| HMRHYVLKENNGVIAIYKVNQENEAVFKENTQIQVQYLPEVDLINLKKGIYAIGEEKLNSILEDF | -0.613 |
| HMSTQGRRIEILRHLTQTKKKADVNFVELGRTFGTSDTTIRKDLDWLIKNEYWENHGEWKPTQAGLNMI | 0.0347 |
| HMKTGNIITVSLVWKGKYYMIRMFFPSASRPTRSDVQNEIEKVYPGSKLSTFSVSDYEPGQPLLQV | -1.16 |

| Sequence | soluble fraction (log2) |
| --- | --- |
| HMGIFAQTTKWRDIYTVKKKDTIFGIANKYGLSLPELMEANPEMKQEGYMLQKGTTLFIPFASD | -0.483 |
| HMQSKSEINELPKSIHMAFSPKNFELFIDNLKINEIDFSNWKGELNTIQERVDGQRQIWIQDPQGYWIEIN | -0.018 |
| HMKVTRWEDTGMKPAEAQEWQHYDFKPQEAMNWRDAGFVPLVARTWSDKGFDASEAQAWRDSVRNS | -0.19 |
| HMDTERLYAYAWQTHLKQFGLNISEEEIRQFVGVDDRIVHSFYAKTVPLDDFENTMFSLGEIIQQSL | -2.99 |
| HMNKSEFLNELEKRIRVLEKNEIKDILAEYSQHIDMRMGSGLSEAEAIKDFGDMDDLAAEILEAY | 0.08 |
| HMETVQTGTVKVSNSLNVRSGAGTNYSVLGSLSNGAKVEIVGTSGSWYKIKYGSGYGYVSKDYVTVS | -0.0163 |
| HMQNYLEFIGNELKALTSIPSPSGYTKDVAAYLMKTLSDMGYEPQLSNKGNVFVTIGGEGNPLVLAAHVD | -0.0984 |
| HMNNENELSSIISKVLEENPAEKERFLNGEKKLAGFFMGKIMKATKGTADPKKAAQLLNEIL | 0.295 |
| HMTKIKAIFFDIDGTIRSFKTKTIPENTANTLKKLKEQGIKIFIATGRAPFHTTFLNDLLDFKFDGYITIN | -0.282 |
| HMAMKFQDIVRQKRKELGLTQEQAARRLGVSPAAVSKWESGQSLPDTPLFAPLARLLHTDLNTLLSFE | -0.732 |
| HMFDGNIKIVEDAFSVTIVARGTEVKISGDPENVYLASKTVEGLLTLIDKGEAITDQRVHYVIGLVREG | -2.65 |
| HMDPDARQDAEVWLLDFLSAGPRTAQEIFTAARVEGHTRVTVKRAKATAGIQSVKQDFDGPWVWVLPGSG | -0.491 |
| HMQITNEGQIKLVISEVLNENQEQKKQYLSGKEQVLGYLIGKVMQKTKGKANPKLVNDLMIKELS | 0.257 |
| HMLAYQRTYEKILEDLRNDVYPVNSLLPPEPKLEEIYHVSRTTVRRAIAQLADEGYVKVKQGYGTVVLKN | -0.339 |
| HMKPDWLSDGRLIPDEVMSHLRKIAVHAVEEMGYSPEDVIKILGLSRNTIYDWLKRFREHGYEGLDTKK | -0.258 |
| HMQGVNLTETEKNFIAQVLSPLLKQGQSLYQIRTNHPEIKLSVKTLYTYIESGIFKESGINNFSLRRQ | 0.0431 |
| HMQTNEAIINQAVQAAEAQNITTRSQAVDALKANGMTEAQARQLAVQRGISYDQLINELFPME | -0.0275 |
| HMRDPLNTGFRQTLKDIVNSLPKNELYSPGVREEYIYPKIGVTSLGMEASMVLNGLISSRRKNIELKEKN | 0.447 |
| HMNSVSARRSAAITAISTGRIHSQEDLVQALKKAGYPVTQATASRDIEEIGAVRIRNQKGEMVYAIS | 0.264 |
| HMEILVSTRRHEIASLLSRKKRVSFFELFPEKTKEYVVATFLAILEMAKAREVNITQEDTFDEIIVEEA | -0.43 |
| HMDGEINPYTGREYVTNSVRMHPRRIGYVQVYSRKDHKWTDMTEWAFLGEQERKKVLLGKAYEPPVYL | -1.55 |
| HMNDGTIRVGTNVTIKPSAKRWATGQNIYYGVKGKTYKVIQMNGNRLLLDKVISWINKGDVYVPGS | -0.501 |
| HMQGRIYLNPDLAEKLRAQYAAYPHWSYLLHTENLGALVRKTESLGPMPSYSTILRYMHANDMRKRNKP | -1.6 |
| HMNKNQGVTTTNLNFRKSASTSSLVLYTIPKNTTLDILDKLPSGWYKVKYKGLTGYVSGSYV | -1.37 |
